{
  "source": "IntAct's records for PubMed 31515488",
  "parents": {"B1": {"name": "Retinoic acid receptor RXR-gamma (Homo sapiens), P48443 (parent)", "chain": "MYGNYSHFMKFPAGYGGSPGHTGSTSMSPSAALSTGKPMDSHPSYTDTPVSAPRTLSAVGTPLNALGSPYRVITSAMGPPSGALAAPPGINLVAPPSSQLNVVNSVSSSEDIKPLPGLPGIGNMNYPSTSPGSLVKHICAICGDRSSGKHYGVYSCEGCKGFFKRTIRKDLIYTCRDNKDCLIDKRQRNRCQYCRYQKCLVMGMKREAVQEERQRSRERAESEAECATSGHEDMPVERILEAELAVEPKTESYGDMNMENSTNDPVTNICHAADKQLFTLVEWAKRIPHFSDLTLEDQVILLRAGWNELLIASFSHRSVSVQDGILLATGLHVHRSSAHSAGVGSIFDRVLTELVSKMKDMQMDKSELGCLRAIVLFNPDAKGLSNPSEVETLREKVYATLEAYTKQKYPEQPGRFAKLLLRLPALRSIGLKCLEHLFFFKLIGDTPIDTFLMEMLETPLQIT", "partner": "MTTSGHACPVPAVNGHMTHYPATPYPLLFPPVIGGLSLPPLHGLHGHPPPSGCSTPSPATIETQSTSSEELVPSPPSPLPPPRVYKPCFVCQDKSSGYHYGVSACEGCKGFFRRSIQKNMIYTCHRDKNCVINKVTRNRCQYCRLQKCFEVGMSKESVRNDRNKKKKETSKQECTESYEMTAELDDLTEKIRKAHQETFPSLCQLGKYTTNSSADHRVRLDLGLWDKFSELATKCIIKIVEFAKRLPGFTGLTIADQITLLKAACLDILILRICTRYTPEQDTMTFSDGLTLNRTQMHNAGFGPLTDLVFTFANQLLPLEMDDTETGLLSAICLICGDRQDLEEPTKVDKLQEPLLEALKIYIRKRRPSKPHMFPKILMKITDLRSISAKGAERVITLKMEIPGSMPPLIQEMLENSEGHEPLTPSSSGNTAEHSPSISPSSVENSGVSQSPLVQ"}, "B2": {"name": "Keratin, type I cuticular Ha8 (Homo sapiens), O76015 (parent)", "chain": "MTSSYSSSSCPLGCTMAPGARNVSVSPIDIGCQPGAEANIAPMCLLANVAHANRVRVGSTPLGRPSLCLPPTCHTACPLPGTCHIPGNIGICGAYGENTLNGHEKETMQFLNDRLANYLEKVRQLEQENAELEATLLERSKCHESTVCPDYQSYFHTIEELQQKILCSKAENARLIVQIDNAKLAADDFRIKLESERSLRQLVEADKCGTQKLLDDATLAKADLEAQQESLKEEQLSLKSNHEQEVKILRSQLGEKLRIELDIEPTIDLNRVLGEMRAQYEAMLETNRQDVEQWFQAQSEGISLQDMSCSEELQCCQSEILELRCTVNALEVERQAQHTLKDCLQNSLCEAEDRFGTELAQMQSLISNVEEQLSEIRADLERQNQEYQVLLDVKTRLENEIATYRNLLESEDCKLPCNPCSTSPSCVTAPCAPRPSCGPCTTCGPTCGASTTGSRF", "partner": "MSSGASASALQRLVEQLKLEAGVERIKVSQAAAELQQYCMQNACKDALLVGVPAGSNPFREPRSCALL"}, "B3": {"name": "Protein BEX5 (Homo sapiens), Q5H9J7 (parent)", "chain": "MENVPKENKVVEKAPVQNEAPALGGGEYQEPGGNVKGVWAPPAPGFGEDVPNRLVDNIDMIDGDGDDMERFMEEMRELRRKIRELQLRYSLRILIGDPPHHDHHDEFCLMP", "partner": "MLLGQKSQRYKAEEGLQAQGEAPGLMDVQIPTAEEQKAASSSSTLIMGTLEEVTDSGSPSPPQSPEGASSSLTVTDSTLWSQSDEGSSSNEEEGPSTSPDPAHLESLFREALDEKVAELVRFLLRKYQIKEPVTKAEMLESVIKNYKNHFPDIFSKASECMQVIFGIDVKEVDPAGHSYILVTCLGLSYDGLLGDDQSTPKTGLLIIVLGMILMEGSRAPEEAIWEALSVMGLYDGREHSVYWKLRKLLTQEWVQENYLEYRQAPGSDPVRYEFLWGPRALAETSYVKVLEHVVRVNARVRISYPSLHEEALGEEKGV"}, "B4": {"name": "Zyxin (Homo sapiens), Q15942 (parent)", "chain": "MAAPRPSPAISVSVSAPAFYAPQKKFGPVVAPKPKVNPFRPGDSEPPPAPGAQRAQMGRVGEIPPPPPEDFPLPPPPLAGDGDDAEGALGGAFPPPPPPIEESFPPAPLEEEIFPSPPPPPEEEGGPEAPIPPPPQPREKVSSIDLEIDSLSSLLDDMTKNDPFKARVSSGYVPPPVATPFSSKSSTKPAAGGTAPLPPWKSPSSSQPLPQVPAPAQSQTQFHVQPQPQPKPQVQLHVQSQTQPVSLANTQPRGPPASSPAPAPKFSPVTPKFTPVASKFSPGAPGGSGSQPNQKLGHPEALSAGTGSPQPPSFTYAQQREKPRVQEKQHPVPPPAQNQNQVRSPGAPGPLTLKEVEELEQLTQQLMQDMEHPQRQNVAVNELCGRCHQPLARAQPAVRALGQLFHIACFTCHQCAQQLQGQQFYSLEGAPYCEGCYTDTLEKCNTCGEPITDRMLRATGKAYHPHCFTCVVCARPLEGTSFIVDQANRPHCVPDYHKQYAPRCSVCSEPIMPEPGRDETVRVVALDKNFHMKCYKCEDCGKPLSIEADDNGCFPLDGHVLCRKCHTARAQT", "partner": "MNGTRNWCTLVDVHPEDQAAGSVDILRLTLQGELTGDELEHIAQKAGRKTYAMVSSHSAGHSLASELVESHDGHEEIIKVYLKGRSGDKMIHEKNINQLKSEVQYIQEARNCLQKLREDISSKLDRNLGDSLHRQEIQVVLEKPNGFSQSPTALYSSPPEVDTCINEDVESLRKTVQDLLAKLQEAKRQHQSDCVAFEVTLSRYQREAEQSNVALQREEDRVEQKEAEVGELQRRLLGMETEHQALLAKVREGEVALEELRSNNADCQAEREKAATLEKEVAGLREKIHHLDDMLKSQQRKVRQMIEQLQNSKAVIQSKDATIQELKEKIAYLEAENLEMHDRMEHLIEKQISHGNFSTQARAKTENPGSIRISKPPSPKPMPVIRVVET"}},
  "data": [
    {"variants_of": "B1", "conditions": "with rarb_human RARB", "values": [
      {"variant": "MYGNYSHFMKFPAGYGGSPGHTGSTSMSPSAALSTGKPMDSHPSYTDTPVSAPRTLSAVGTPLNALGSPYRVITSAMGPPSGALAVPPGINLVAPPSSQLNVVNSVSSSEDIKPLPGLPGIGNMNYPSTSPGSLVKHICAICGDRSSGKHYGVYSCEGCKGFFKRTIRKDLIYTCRDNKDCLIDKRQRNRCQYCRYQKCLVMGMKREAVQEERQRSRERAESEAECATSGHEDMPVERILEAELAVEPKTESYGDMNMENSTNDPVTNICHAADKQLFTLVEWAKRIPHFSDLTLEDQVILLRAGWNELLIASFSHRSVSVQDGILLATGLHVHRSSAHSAGVGSIFDRVLTELVSKMKDMQMDKSELGCLRAIVLFNPDAKGLSNPSEVETLREKVYATLEAYTKQKYPEQPGRFAKLLLRLPALRSIGLKCLEHLFFFKLIGDTPIDTFLMEMLETPLQIT", "note": "[A86V]", "effect of a mutation on the interaction": "with no effect"}
    ]},
    {"variants_of": "B2", "conditions": "with gbg10_human GNG10, P50151", "values": [
      {"variant": "MTSSYSSSSCPLGCTMAPGARNVSVSPIDIGCQPGAEANIAPMCLLANVAHANRVRVGSTPLGRPSLCLPPTCHTACPLPGTCHIPGNIGICGAYGENTLNGHEKETMQFLNDRLANYLEKVRQLEQENAELEATLLERSKCHESTVCPDYQSYFHTIEELQQKILCSKAENARLIVQIDNAKLAADDFRIKLESERSLRQLVESDKCGTQKLLDDATLAKADLEAQQESLKEEQLSLKSNHEQEVKILRSQLGEKLRIELDIEPTIDLNRVLGEMRAQYEAMLETNRQDVEQWFQAQSEGISLQDMSCSEELQCCQSEILELRCTVNALEVERQAQHTLKDCLQNSLCEAEDRFGTELAQMQSLISNVEEQLSEIRADLERQNQEYQVLLDVKTRLENEIATYRNLLESEDCKLPCNPCSTSPSCVTAPCAPRPSCGPCTTCGPTCGASTTGSRF", "note": "[A205S]", "effect of a mutation on the interaction": "with no effect"}
    ]},
    {"variants_of": "B3", "conditions": "with maga8_human MAGEA8, P43361", "values": [
      {"variant": "E74D", "effect of a mutation on the interaction": "with no effect"}
    ]},
    {"variants_of": "B4", "conditions": "with tuft1_human TUFT1, Q9NNX1", "values": [
      {"variant": "MAAPRPSPAISVSVSAPAFYAPQKKFGPVVAPKPKVNPFRPGDSEPPPAPGAQRAQMGRVGEIPPPPPEDFPLPPPPLAGDGDDAEGALGGAFPPPPPPIEESFPPAPLEEEIFPSPPPPPEEEGGPEAPIPPPPQPREKVSSIDLEIDSLSSLLDDMTKNDPFKARVSSGYVPPPVATPFSSKSSTKPAAGGTAPLPPWKSPSSSQPLPQVPAPAQSQTQFLVQPQPQPKPQVQLHVQSQTQPVSLANTQPRGPPASSPAPAPKFSPVTPKFTPVASKFSPGAPGGSGSQPNQKLGHPEALSAGTGSPQPPSFTYAQQREKPRVQEKQHPVPPPAQNQNQVRSPGAPGPLTLKEVEELEQLTQQLMQDMEHPQRQNVAVNELCGRCHQPLARAQPAVRALGQLFHIACFTCHQCAQQLQGQQFYSLEGAPYCEGCYTDTLEKCNTCGEPITDRMLRATGKAYHPHCFTCVVCARPLEGTSFIVDQANRPHCVPDYHKQYAPRCSVCSEPIMPEPGRDETVRVVALDKNFHMKCYKCEDCGKPLSIEADDNGCFPLDGHVLCRKCHTARAQT", "note": "[H223L]", "effect of a mutation on the interaction": "with no effect"},
      {"variant": "MAAPRPSPAISVSVSAPAFYAPQKKFGPVVAPKPKVNPFRPGDSEPPPAPGAQRAQMGRVGEIPPPPPEDFPLPPPPLAGDGDDAEGALGGAFPPPPPPIEESFPPAPLEEEIFPSPPPPPEEEGGPEAPIPPPPQPREKVSSIDLEIDSLSSLLDDMTKNDPFKARVSSGYVPPPVATPFSSKSSTKPAAGGTAPLPPWKSPSSSQPLPQVPAPAQSQTQFHVQPQPQPKPQVQLHVQSQTQPVSLANTQPRGPPASSPAPAPKFSPVTPKFTPVASKFSPGAPGGSGSQPNQKLGHPEALSAGTGSPQPPSFTYAQQREKPRVQEKQHPVPPPAQNQNQVRSPGAPGPLTLKEVEELEQLTQQLMQDMEHPQRQNVAVNELCGRCHQPLARAQPAVRALGQLFHIACFTCHQCAQQLQGQQFYSLEGAPYCEGCYTDTLEKCNTCGEPITDRMLRATGKAYHPHCFTCVVCARPLEGTSFIVDQANRPHCVPDYHKQYAPRCSVCSEPIMPEPGRDETVRVVALDKNFHMKCYKCEDCGKPLSIEADDNGCFPLDGHVLCQKCHTARAQT", "note": "[R563Q]", "effect of a mutation on the interaction": "with no effect"}
    ]}
  ]
}
